What is called Kd is a measure of binding affinity in units of concentration. By koff is commonly meant a measure of how fast the partners let go of each other. In general, kon refers to a measure of how fast the partners come together. Low readings indicate slower complex formation, high ones faster complex formation. Usually EC50 (read off the curve) stands for the concentration that produces a half-maximal response. A low value points to greater potency. As usually defined, the EC50 is the midpoint of the concentration-response curve. The low end stands for higher potency in that assay, the high end for lower potency in that assay.

The results in this text go back to patent publication US20240052033A1 (Molecular Partners, published 2024).

For experiment [1], the target named is biotinylated human scCD3εγ (scCD3εγ_Avi-Bio): single-chain human CD3ε/CD3γ extracellular domains joined by a 26 amino acid linker, with a C-terminal Avi-tag (human). Put plainly: SPR (ProteOn), biotinylated scCD3εγ on NLC chip, DARPin as analyte 4-64 nM, PBS with 0.005% Tween 20; n = 6.
The target of experiment [2] is T1, human CD3 on primary human pan-T cells (human, UniProt P07766 23-207; P09693 23-182; P04234 22-171; P20963 22-164).
T1 construct: whole, on cells; Native CD3 complex (pairs εγ, εδ, ζζ) on T cells isolated from human PBMCs; it is associated with the T cell receptor on the cells; also called CD3 on Pan-T cells; CD3 on T cells
T1 sequence (P07766 23-207, chain 1 of 4): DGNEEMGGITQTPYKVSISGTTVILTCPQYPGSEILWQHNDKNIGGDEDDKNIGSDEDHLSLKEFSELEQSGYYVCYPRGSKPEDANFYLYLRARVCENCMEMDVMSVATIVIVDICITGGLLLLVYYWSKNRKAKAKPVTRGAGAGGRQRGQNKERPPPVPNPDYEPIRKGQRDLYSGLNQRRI
T1 sequence (P09693 23-182, chain 2 of 4): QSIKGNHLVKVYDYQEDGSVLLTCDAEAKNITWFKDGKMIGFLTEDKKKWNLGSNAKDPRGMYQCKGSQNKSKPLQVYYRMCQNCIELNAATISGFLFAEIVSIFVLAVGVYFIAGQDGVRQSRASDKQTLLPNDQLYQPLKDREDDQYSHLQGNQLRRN
T1 sequence (P04234 22-171, chain 3 of 4): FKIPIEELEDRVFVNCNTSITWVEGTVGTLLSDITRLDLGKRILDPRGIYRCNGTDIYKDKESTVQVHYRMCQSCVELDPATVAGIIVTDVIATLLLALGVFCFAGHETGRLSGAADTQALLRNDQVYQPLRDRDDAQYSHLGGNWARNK
T1 sequence (P20963 22-164, chain 4 of 4): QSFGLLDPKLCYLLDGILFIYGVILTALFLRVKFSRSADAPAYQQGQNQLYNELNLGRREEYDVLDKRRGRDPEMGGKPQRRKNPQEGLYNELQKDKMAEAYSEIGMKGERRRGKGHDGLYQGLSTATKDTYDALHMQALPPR
Put plainly: Mirrorball laser scanning imaging cytometry on primary human pan-T cells with 600 µM HSA; detection with anti-penta-His Alexa Fluor 488; Median (FL-2 Mean Intensity) [A].

Experiment [3] has as its target T1, human CD3 on primary human pan-T cells. Put plainly: Mirrorball laser scanning imaging cytometry on primary human pan-T cells, 600 µM HSA, anti-penta-His Alexa Fluor 488 detection.
Experiment [4] addresses biotinylated human scCD3εγ (scCD3εγ_Avi-Bio): single-chain human CD3ε/CD3γ extracellular domains joined by a 26 amino acid linker, with a C-terminal Avi-tag (human). Description: SPR (ProteOn), biotinylated scCD3εγ on NLC chip, DARPin as analyte 4-64 nM, PBS with 0.005% Tween 20; n = 2.
For experiment [5] the target is unchanged. Put plainly: SPR (ProteOn), biotinylated scCD3εγ on NLC chip, DARPin as analyte 4-64 nM, PBS with 0.005% Tween 20; n = 4.
The target in experiment [6] is T1, human CD3 on primary human pan-T cells. Put plainly: Mirrorball laser scanning imaging cytometry on primary human pan-T cells with 600 µM HSA; detection with anti-penta-His Alexa Fluor 488; Median (FL-2 Mean Intensity) [B]. How it is done:
The determination of CD3 binding was performed with primary human T cells using Mirrorball laser scanning imaging cytometry. Therefore, primary T cells were isolated from human peripheral blood mononuclear cells (PBMCs) using a pan-T cell purification kit (Miltenyi Biotec). […] To generate the tri-specific TCE proteins, DARPin® protein #1, DARPin® protein #2, DARPin® protein #3 and DARPin® protein #4, respectively, was subcloned and expressed as described above into a derivative of the pQE30 (Qiagen) expression vector, encoding an N-terminal His-tag, followed by two different TAA-specific ankyrin repeat domains (in the order TAA2- and TAA3-specific, respectively), and then followed by one of the CD3-specific ankyrin repeat domains of the invention. […] After washing, CD3 binding was detected by 1:100-diluted anti-penta-His Alexa Fluor 488 antibody (Qiagen). […] Median of mean fluorescence intensities of Alexa Fluor 488 binding on far-red counterstained cells were measured by Mirrorball using Cellista software (SPT Labtech) and data was plotted using GraphPad Prism 8.

In experiment [7] the target is T2, biotinylated human scCD3εγ (scCD3εγ_Avi-Bio): single-chain human CD3ε/CD3γ extracellular domains joined by a … (human, biotinylated in vitro with BirA at the C-terminal Avi-tag).
T2 construct: monomeric; also called recombinant human CD3 target; human CD3 (SPR)
T2 chain: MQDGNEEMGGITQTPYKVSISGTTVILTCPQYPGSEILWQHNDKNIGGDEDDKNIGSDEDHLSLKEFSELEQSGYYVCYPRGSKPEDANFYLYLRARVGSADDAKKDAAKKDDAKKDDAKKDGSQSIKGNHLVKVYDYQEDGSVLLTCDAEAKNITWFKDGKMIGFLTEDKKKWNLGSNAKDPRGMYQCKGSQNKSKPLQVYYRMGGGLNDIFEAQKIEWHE
Put plainly: ribosome display selection; crude extract HTRF on recombinant human CD3 target. The text has this:
Using ribosome display (Hanes, J. and Plückthun, A., PNAS 94, 4937-42, 1997), many ankyrin repeat proteins with binding specificity for human scCD3 were selected from DARPin® libraries similar as described by Binz et al. 2004 (loc. cit.). […] For example, the ankyrin repeat domain of SEQ ID NO: 1 constitutes an amino acid sequence of a selected binding protein comprising an ankyrin repeat domain with binding specificity for scCD3. Individual ankyrin repeat modules from such ankyrin repeat domains with binding specificity to scCD3 are provided, e.g., in SEQ ID NO: 5 to 9.

Where a chain is given by its changes, count along the chain named.

B1: DARPin® protein #4 with TAA2/TAA3 domains (trispecific format: His-tag, TAA2-specific domain, TAA3-specific domain, CD3-specific domain) (designed binder, part only; not given: CD123 and CD33 DARPin domains, not shown: small tags and cut ends)
chain, part: MRGSHHHHHHGSGSPTPTPTTPTPTPTTPTPTPTGSPTPTPTTPTPTPTTPTPTPTDLGQKLLEAAWAGQLDEVRILLKAGADVNAKNSRGWTPLHTAAQTGHLEIFEVLLKAGADVNAKTNKRVTPLHLAAALGHLEIVEVLLKAGADVNARDTWGTTPADLAAKYGHRDIAEVLQKAA
For B1, in experiment [1], the Kd was 6 nM, the koff was 0.00041 s⁻¹ and the association rate constant (kon) was 82000 M⁻¹ s⁻¹. This molecule also gave an EC50 (read off the curve) in experiment [2] of 6 nM. This molecule returned an EC50 in experiment [3] of 5 to 15 nM.

B2: DARPin® protein #2 with TAA2/TAA3 domains (trispecific format: His-tag, TAA2-specific domain, TAA3-specific domain, CD3-specific domain) (designed binder, part only; not given: CD123 and CD33 DARPin domains, not shown: small tags and cut ends)
chain, part: B1 chain, part with L71D, I76E, T121D, N122D, R124G, R153Q, T155S, R170E
In experiment [4], B2 came in with a Kd of 35 nM, a koff of 0.0015 s⁻¹ and a kon of 49000 M⁻¹ s⁻¹. For the same molecule, the half-maximal effective concentration (EC50) in experiment [3] lay in the range of 250 to 400 nM.

B3: DARPin® protein #3 with TAA2/TAA3 domains (trispecific format: His-tag, TAA2-specific domain, TAA3-specific domain, CD3-specific domain) (designed binder, part only; not given: CD123 and CD33 DARPin domains, not shown: small tags and cut ends)
chain, part: B1 chain, part with L71D, I76E, T121N, N122D, T155S, R170Q
In experiment [5], B3 came in with a Kd of 15 nM, a koff of 0.0013 s⁻¹ and an association rate constant (kon) of 89000 M⁻¹ s⁻¹. This molecule registered an EC50 in experiment [3] of 50 to 100 nM.

B4: DARPin® protein A (with HSA) (designed binder)
single chain: DLGQKLLEAAWAGQDDEVRELLKAGADVNAKDSQGWTPLHTAAQTGHLEIFEVLLKAGADVNAKDDKGVTPLHLAAALGHLEIVEVLLKAGADVNAQDSWGTTPADLAAKYGHEDIAEVLQKAA
notes: The MOLECULES list holds the half-life extended forms of B, C and D only; also called DARPin® protein A with half-life extension
Regarding B4, the binding result in experiment [6] was “no binding (tested: about 3000 nM)”.

B5: SEQ ID NO 1 (designed binder)
chain: B4 single chain
notes: also called CD3-specific domain of DARPin® protein #1
On to B5, for which, in experiment [7], the binding result is recorded as “binds”.

B6: DARPin® protein D with half-life extension (tetraspecific format: His-tag, HSA-specific domain, TAA2-specific domain, TAA3-specific domain, DARPin® protein #4) (designed binder, not shown: large carriers; small tags and cut ends)
chain: B4 single chain with D15L, E20I, D32N, Q34R, D65T, D66N, G68R, Q97R, S99T, E114R
notes: also called half-life extended DARPin® protein D; DARPin® protein #H
Turning to B6, the “EC50 (read off the curve)” value in experiment [6] was around 20 nM.
